From IntAct's records for PubMed 19706414

Molecular target: casp8_human CASP8 (UniProt Q14790)
Sequence (Q14790 whole entry): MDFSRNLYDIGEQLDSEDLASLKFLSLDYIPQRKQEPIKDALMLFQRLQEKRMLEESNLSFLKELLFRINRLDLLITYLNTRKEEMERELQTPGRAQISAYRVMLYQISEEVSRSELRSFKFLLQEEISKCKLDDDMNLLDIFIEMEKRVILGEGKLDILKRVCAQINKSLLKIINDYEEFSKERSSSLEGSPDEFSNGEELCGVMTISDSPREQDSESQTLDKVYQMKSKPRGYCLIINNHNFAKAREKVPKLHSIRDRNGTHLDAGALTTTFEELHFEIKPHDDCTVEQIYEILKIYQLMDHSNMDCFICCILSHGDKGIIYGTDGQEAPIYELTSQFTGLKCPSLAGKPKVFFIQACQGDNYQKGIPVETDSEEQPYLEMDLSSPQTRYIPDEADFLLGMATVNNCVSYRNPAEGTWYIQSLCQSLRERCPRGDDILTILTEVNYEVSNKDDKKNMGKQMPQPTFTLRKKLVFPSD

Sequence of Osteopontin (Homo sapiens), P10451-1 D135A;D157A (P10451 whole entry D135A/D157A): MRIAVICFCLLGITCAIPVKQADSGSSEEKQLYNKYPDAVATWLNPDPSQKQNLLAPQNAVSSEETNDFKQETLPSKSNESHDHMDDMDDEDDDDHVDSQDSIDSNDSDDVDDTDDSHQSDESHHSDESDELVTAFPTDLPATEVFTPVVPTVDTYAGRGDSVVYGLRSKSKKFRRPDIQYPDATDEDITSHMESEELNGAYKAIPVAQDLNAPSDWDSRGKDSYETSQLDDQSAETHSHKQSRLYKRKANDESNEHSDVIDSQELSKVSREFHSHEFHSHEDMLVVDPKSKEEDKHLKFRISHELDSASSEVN

Osteopontin (Homo sapiens), P10451-1 D135A;D157A
effect of a mutation on the interaction: disrupting interaction
